pKd: −log10 of the molar value.
Legend:
[1] = target: mouse PD-L1 on 293F cells (WBP315.293F.mPro1.C1) (mouse) (UniProt Q9EP73); test: FACS on mouse PD-L1 expressing 293F cells, FITC anti-human IgG
[2] = target: human PD-L1 on CHO-K1 cells (WBP315.CHO-K1.hPro1.C11) (human) (UniProt Q9NZQ7); test: FACS on human PD-L1 expressing CHO-K1 cells, FITC anti-human IgG
[3] = target: cynomolgus monkey PD-L1 on 293F cells (WBP315.293F.cPro1.2A) (cynomolgus monkey) (UniProt G7PSE7); test: FACS on cynomolgus PD-L1 expressing 293F cells, FITC anti-human IgG
Sequence of cynomolgus monkey PD-L1 on 293F cells (WBP315.293F.cPro1.2A) (cynomolgus monkey) (G7PSE7 entry or part of it limits assumed): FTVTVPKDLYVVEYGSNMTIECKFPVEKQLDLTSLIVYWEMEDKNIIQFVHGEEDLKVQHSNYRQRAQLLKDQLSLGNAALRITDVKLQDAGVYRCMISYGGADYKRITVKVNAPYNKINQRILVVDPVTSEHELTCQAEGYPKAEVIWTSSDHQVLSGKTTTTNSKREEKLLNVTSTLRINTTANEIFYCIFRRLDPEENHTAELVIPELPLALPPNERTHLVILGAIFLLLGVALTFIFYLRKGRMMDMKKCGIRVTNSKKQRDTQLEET

[4] = target: human PD-L1 extracellular domain, his tag (W315-hPro1.ECD.his) (human) (UniProt Q9NZQ7); test: SPR (Biacore T200), antibody captured on anti-human Fc, antigen as analyte, 25 °C
Sequence of human PD-L1 extracellular domain, his tag (W315-hPro1.ECD.his) (human) (Q9NZQ7 19-238): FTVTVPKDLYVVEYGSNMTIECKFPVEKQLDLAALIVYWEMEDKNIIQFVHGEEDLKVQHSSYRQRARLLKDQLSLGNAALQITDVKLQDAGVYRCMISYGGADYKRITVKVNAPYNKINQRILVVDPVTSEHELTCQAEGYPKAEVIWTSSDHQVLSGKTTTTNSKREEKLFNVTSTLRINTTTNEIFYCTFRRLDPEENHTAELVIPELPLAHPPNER

Sequence of human PD-L1 on CHO-K1 cells (WBP315.CHO-K1.hPro1.C11) (human) (Q9NZQ7 19-290): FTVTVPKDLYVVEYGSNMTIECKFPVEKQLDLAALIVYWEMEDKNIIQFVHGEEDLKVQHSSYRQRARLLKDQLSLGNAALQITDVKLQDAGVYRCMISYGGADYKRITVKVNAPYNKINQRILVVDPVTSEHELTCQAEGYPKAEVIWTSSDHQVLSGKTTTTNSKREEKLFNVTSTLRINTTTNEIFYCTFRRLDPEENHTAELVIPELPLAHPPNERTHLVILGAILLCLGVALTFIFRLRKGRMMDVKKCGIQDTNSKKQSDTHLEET
Sequence of mouse PD-L1 on 293F cells (WBP315.293F.mPro1.C1) (mouse) (Q9EP73 19-290): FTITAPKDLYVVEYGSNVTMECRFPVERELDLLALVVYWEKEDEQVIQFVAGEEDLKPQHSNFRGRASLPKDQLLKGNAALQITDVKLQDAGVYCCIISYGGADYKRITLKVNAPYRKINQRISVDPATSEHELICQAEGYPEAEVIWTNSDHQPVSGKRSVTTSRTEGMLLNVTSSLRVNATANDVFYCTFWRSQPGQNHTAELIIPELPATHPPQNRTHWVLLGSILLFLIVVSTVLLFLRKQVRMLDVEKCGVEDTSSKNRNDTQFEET

- EC50 (read off the curve) [1]: 2 nM
- EC50 (read off the curve) [2]: 0.1 nM
- EC50 (read off the curve) [3]: 2 nM
- pKd [4]: 10.22
Substance: W315-BMK8.uIgG1K(RKNA) (Atezolizumab) (antibody)

From patent publication US20230242645A1
